Data from patent US20250368745A1 (published 2025).
Where a chain is given by its changes, count along the chain named. Names and notes keep the numbering of the source. Where two headings read alike, the source gives them in different places.

T1: human IL-18BP (human, UniProt O95998 31-194)
T1 construct: UniProt printed as 095998; also called hIL-18BP
T1 sequence: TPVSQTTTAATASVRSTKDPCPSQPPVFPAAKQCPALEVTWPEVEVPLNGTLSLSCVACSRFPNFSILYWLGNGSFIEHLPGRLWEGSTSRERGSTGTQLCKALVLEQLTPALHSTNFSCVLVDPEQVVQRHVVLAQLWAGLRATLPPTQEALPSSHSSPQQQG

T2: cynomolgus IL-18BP (cynomolgus monkey)
T2 construct: also called cyno IL-18BP; cyIL-18BP
T2 chain: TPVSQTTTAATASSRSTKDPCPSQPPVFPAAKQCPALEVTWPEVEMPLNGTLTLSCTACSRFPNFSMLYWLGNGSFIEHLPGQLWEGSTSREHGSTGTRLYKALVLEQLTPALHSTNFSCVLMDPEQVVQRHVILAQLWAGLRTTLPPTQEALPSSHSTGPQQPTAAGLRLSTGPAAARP

B1: SA301a HC-G97A (antibody, name in Kabat numbering, V domains shown)
VH: QVQLQESGPGLVKPSQTLSLTCTVSGYSITSDYNSHWIRQPPGKGLEWIGYIHYSGSTNYNPSLKSRVTISRDTSKNQFSLKLSSVTAADTAVYYCARNYASIYVNYFDYWGQGTLVTVSS
VL: EIVLTQSPATLSLSPGERATLSCSASSSVSYMYWYQQKPGQAPRPLIYRTSNLASGIPARFSGSGSGTDFTLTISSLEPEDFAVYYCQQYHSYPTFGGGTKVEIK
notes: IgG1 kappa
B2: SA301a HC-G97D (antibody, name in Kabat numbering, V domains shown)
VH: B1 VH with A101D
VL: B1 VL
notes: IgG1 kappa
B3: SA301a HC-G97E (antibody, name in Kabat numbering, V domains shown)
VH: B1 VH with A101E
VL: B1 VL
notes: IgG1 kappa
B4: SA301a HC-G97F (antibody, name in Kabat numbering, V domains shown)
VH: B1 VH with A101F
VL: B1 VL
notes: IgG1 kappa
B5: SA301a HC-G97H (antibody, name in Kabat numbering, V domains shown)
VH: B1 VH with A101H
VL: B1 VL
notes: IgG1 kappa
B6: SA301a HC-G97I (antibody, name in Kabat numbering, V domains shown)
VH: B1 VH with A101I
VL: B1 VL
notes: IgG1 kappa
B7: SA301a HC-G97K (antibody, name in Kabat numbering, V domains shown)
VH: B1 VH with A101K
VL: B1 VL
notes: IgG1 kappa
B8: SA301a HC-G97L (antibody, name in Kabat numbering, V domains shown)
VH: B1 VH with A101L
VL: B1 VL
notes: IgG1 kappa
B9: SA301a HC-G97M (antibody, name in Kabat numbering, V domains shown)
VH: B1 VH with A101M
VL: B1 VL
notes: IgG1 kappa
B10: SA301a HC-G97N (antibody, name in Kabat numbering, V domains shown)
VH: B1 VH with A101N
VL: B1 VL
notes: IgG1 kappa
B11: SA301a HC-G97P (antibody, name in Kabat numbering, V domains shown)
VH: B1 VH with A101P
VL: B1 VL
notes: IgG1 kappa
B12: SA301a HC-G97Q (antibody, name in Kabat numbering, V domains shown)
VH: B1 VH with A101Q
VL: B1 VL
notes: IgG1 kappa
B13: SA301a HC-G97R (antibody, name in Kabat numbering, V domains shown)
VH: B1 VH with A101R
VL: B1 VL
notes: IgG1 kappa
B14: SA301a HC-G97T (antibody, name in Kabat numbering, V domains shown)
VH: B1 VH with A101T
VL: B1 VL
notes: IgG1 kappa
B15: SA301a HC-G97V (antibody, name in Kabat numbering, V domains shown)
VH: B1 VH with A101V
VL: B1 VL
notes: IgG1 kappa
B16: SA301a HC-N95A (antibody, name in Kabat numbering, V domains shown)
VH: B1 VH with N99A, A101G
VL: B1 VL
notes: IgG1 kappa
B17: SA301a HC-N95G (antibody, name in Kabat numbering, V domains shown)
VH: B1 VH with N99G, A101G
VL: B1 VL
notes: IgG1 kappa
B18: SA301a HC-N95Q (antibody, name in Kabat numbering, V domains shown)
VH: B1 VH with N99Q, A101G
VL: B1 VL
notes: IgG1 kappa
B19: SA301a HC-N95R (antibody, name in Kabat numbering, V domains shown)
VH: B1 VH with N99R, A101G
VL: B1 VL
notes: IgG1 kappa
B20: SA301a HC-S98A (antibody, name in Kabat numbering, V domains shown)
VH: B1 VH with A101G, S102A
VL: B1 VL
notes: IgG1 kappa
B21: SA301a HC-S98D (antibody, name in Kabat numbering, V domains shown)
VH: B1 VH with A101G, S102D
VL: B1 VL
notes: IgG1 kappa
B22: SA301a HC-S98G (antibody, name in Kabat numbering, V domains shown)
VH: B1 VH with A101G, S102G
VL: B1 VL
notes: IgG1 kappa
B23: SA301a HC-S98H (antibody, name in Kabat numbering, V domains shown)
VH: B1 VH with A101G, S102H
VL: B1 VL
notes: IgG1 kappa
B24: SA301a HC-V100aQ (antibody, name in Kabat numbering, V domains shown)
VH: B1 VH with A101G, V105Q
VL: B1 VL
notes: IgG1 kappa
B25: SA301a HC-V100aR (antibody, name in Kabat numbering, V domains shown)
VH: B1 VH with A101G, V105R
VL: B1 VL
notes: IgG1 kappa
B26: SA301a HC-V100aY (antibody, name in Kabat numbering, V domains shown)
VH: B1 VH with A101G, V105Y
VL: B1 VL
notes: IgG1 kappa
B27: SA301a HC-Y100G (antibody, V domains shown)
VH: B1 VH with A101G, Y104G
VL: B1 VL
B28: SA301a HC-Y100V (antibody, V domains shown)
VH: B1 VH with A101G, Y104V
VL: B1 VL
B29: SA301a HC-Y100L (antibody, V domains shown)
VH: B1 VH with A101G, Y104L
VL: B1 VL
B30: SA301a HC-Y100I (antibody, V domains shown)
VH: B1 VH with A101G, Y104I
VL: B1 VL
B31: SA301a HC-Y100S (antibody, V domains shown)
VH: B1 VH with A101G, Y104S
VL: B1 VL
B32: SA301a HC-Y100R (antibody, V domains shown)
VH: B1 VH with A101G, Y104R
VL: B1 VL
B33: SA301a HC-Y100H (antibody, V domains shown)
VH: B1 VH with A101G, Y104H
VL: B1 VL
B34: SA301a HC-Y100D (antibody, V domains shown)
VH: B1 VH with A101G, Y104D
VL: B1 VL
B35: SA301a HC-Y100N (antibody, V domains shown)
VH: B1 VH with A101G, Y104N
VL: B1 VL
B36: SA301a HC-Y100F (antibody, V domains shown)
VH: B1 VH with A101G, Y104F
VL: B1 VL
B37: SA301a HC-Y100P (antibody, V domains shown)
VH: B1 VH with A101G, Y104P
VL: B1 VL
B38: SA301a HC-Y100Q (antibody, V domains shown)
VH: B1 VH with A101G, Y104Q
VL: B1 VL
B39: SA301a HC-Y100M (antibody, V domains shown)
VH: B1 VH with A101G, Y104M
VL: B1 VL
B40: SA301a HC-Y100T (antibody, V domains shown)
VH: B1 VH with A101G, Y104T
VL: B1 VL
B41: SA301a HC-Y100A (antibody, V domains shown)
VH: B1 VH with A101G, Y104A
VL: B1 VL
B42: SA301a HC-Y100E (antibody, V domains shown)
VH: B1 VH with A101G, Y104E
VL: B1 VL
B43: SA301a HC-Y100K (antibody, V domains shown)
VH: B1 VH with A101G, Y104K
VL: B1 VL

Legend:
Experiment in all cases: BLI, apparent KD
human IL-18BP [1] = target: T1, human IL-18BP
human IL-18BP [2] = target: T1, human IL-18BP; remark: listed apart in the source
cynomolgus IL-18BP = target: T2, cynomolgus IL-18BP

Binder | Kd (human IL-18BP [1]) [nM] | Kd (human IL-18BP [2]) [nM] | Kd (cynomolgus IL-18BP) [nM]
B1 | 0.44 |  | 
B2 | 0.46 |  | 
B3 | 11.6 |  | 
B4 | 6.32 |  | 
B5 | 1.57 |  | 
B6 | 7.83 |  | 
B7 | 1.46 |  | 
B8 | 3.7 |  | 
B9 | 0.19 |  | 
B10 | 5.93 |  | 
B11 | 1.36 |  | 
B12 | 7.04 |  | 
B13 | 25.1 |  | 
B14 | 0.01 |  | 
B15 | 4.96 |  | 
B16 | 46.1 |  | 
B17 | 0.17 |  | 
B18 | 5.33 |  | 
B19 | 0.02 |  | 
B20 | 2.29 |  | 
B21 | 0.99 |  | 
B22 | 2.57 |  | 

Binder | Kd (human IL-18BP [1]) [nM] | Kd (human IL-18BP [2]) [nM] | Kd (cynomolgus IL-18BP) [nM]
B23 | 6.42 |  | 
B24 |  | 0.45 | 0.1
B25 |  | 0.19 | 0.08
B26 |  | 27.7 | 0.58
B27 |  | 0.51 | 0.48
B28 |  | 1.59 | 2.55
B29 |  | 1.06 | 1.41
B30 |  | 0.94 | 1.02
B31 |  | 0.72 | 3.27
B32 |  | 1.32 | 2.06
B33 |  | 1.3 | 1.1
B34 |  | 0.56 | 3.65
B35 |  | 0.9 | 3.59
B36 |  | 0.1 | 0.26
B37 |  | 0.63 | 2.4
B38 |  | 1.88 | 3.58
B39 |  | 2.07 | 2.28
B40 |  | 1.08 | 4.48
B41 |  | 0.88 | 4.17
B42 |  | 0.61 | 1.64
B43 |  | 1.49 | 2.18
